Source: the supplement of paper PMC11908140

B1: library; numbered along this chain (parent)
chain: MRKPRAAVGSGHRKQAASQEGRQKHAKNNSQAKPSACDGLARQPEEVVLQASVSSYHLFRDVAEVTAFRGSLLSWYDQEKRDLPWRRRAEDEMDLDRRAYAVWVSEVMLQQTQVATVINYYTGWMQKWPTLQDLASASLEEVNQLWAGLGYYSRGRRLQEGARKVVEELGGHMPRTAETLQQLLPGVGRYTAGAIASIAFGQATGVVDGNVARVLCRVRAIGADPSSTLVSQQLWGLAQQLVDPARPGDFNQAAMELGATVCTPQRPLCSQCPVESLCRARQRVEQEQLLASGSLSGSPDVEECAPNTGQCHLCLPPSEPWDQTLGVVNFPRKASRKPPREESSATCVLEQPGALGAQILLVQRPNSGLLAGLWEFPSVTWEPSEQLQRKALLQELQRWAGPLPATHLRHLGEVVHTFSHIKLTYQVYGLALEGQTPVTTVPPGARWLTQEEFHTAAVSTAMKKVFRVYQGQQPGTCMGSKRSQVSSPCSRKKPRMGQQVLDNFFRSHISTDAHSLNSAAQ

Variants of: B1
Assay: 8OG:A repair function score (normalized; synonymous = 0, nonsense = -1) (normalized log-likelihood score); higher = more repair activity (WT-like)
Conditions: with 8OG:A DNA repair reporter (GFP) in HEK-293 MUTYH KO cells
Method in brief: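 After 72 h, viable mCherry+ cells were split into GFP+ (repair) and GFP− bins in three replicates per tile. These cells were MUTYH knockout HEK-293 cells holding lentiviral MUTYH cDNA NNN codon-scan libraries, kept in 10 pg/ml doxycycline and co-transfected with mCherry plus an 8OG:A GFP repair reporter. Sequencing of tile amplicons gave per-tile Rosace fitness scores, normalized into a repair function score anchored on synonymous and nonsense distributions. Synonymous medians were fixed at 0, nonsense at -1, and variants under 300 counts per million at the start were removed.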
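Note: cells sorted at 72 h after reporter transfection.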

| Variant | 8OG:A repair function score |
| --- | --- |
| F68G | -1.41 |
| F68P | -1.6 |
| Y425T | -0.255 |
| E395N | -0.302 |
| L95A | 0.00636 |
| G429E | -0.296 |
| V165G | -0.877 |
| Q43D | 0.0131 |
| E452C | -0.0884 |
| E168A | -0.135 |
| Q499E | 0.0257 |
| C489P | -0.00598 |
| F466N | -0.0913 |
| F418Y | -0.368 |
| G150D | -1.38 |
| T66Q | 0.00332 |
| A354L | -0.0264 |
| A192R | -0.901 |
| G70D | -0.369 |
| P34V | -0.0896 |
| S507M | -0.0199 |
| H514Y | -0.00319 |
| A259D | -1 |
| V142K | -0.84 |

| Variant | 8OG:A repair function score |
| --- | --- |
| V465S | -0.646 |
| K492V | -0.0261 |
| Q43T | 0.0245 |
| Q498G | 0.0187 |
| R97W | -0.346 |
| L229S | 0.0557 |
| A51M | -0.607 |
| A513E | -0.0288 |
| W146Y | -0.532 |
| G155Q | -0.682 |
| Q144H | -0.0216 |
| C262R | -1.05 |
| L229K | 0.076 |
| G155K | -0.654 |
| G188M | -0.929 |
| R69S | -0.0909 |
| A259K | -0.197 |
| T439P | 0.126 |
| K127M | -0.286 |
| T455V | -0.122 |
| L369F | 0.0478 |
| E413P | -0.386 |
| L289H | 0.0106 |
| R281H | 0.00153 |

| Variant | 8OG:A repair function score |
| --- | --- |
| L396A | -0.329 |
| R163D | -0.387 |
| R446Q | -0.119 |
| T116I | -0.262 |
| S71P | -0.0398 |
| F466H | -0.355 |
| H172G | -0.216 |
| L289A | 0.00592 |
| Y56P | -0.0566 |
| Q386Y | 0.41 |
| Y469H | -0.0773 |
| P185T | -0.242 |
| A357G | -0.0641 |
| G326L | -0.422 |
| K493H | 0.0281 |
| E413D | -0.00314 |
| A345P | -0.334 |
| E92D | -0.0315 |
| N503E | 0.0211 |
| L393M | 0.297 |
| Y190F | -0.574 |
| L184C | -0.317 |
| R175W | -0.356 |
| T112W | -1.35 |

| Variant | 8OG:A repair function score |
| --- | --- |
| A461Y | -0.726 |
| G70R | 0.00416 |
| E168C | 0.0112 |
| N307Y | -0.0923 |
| V206C | -0.0127 |
| E45F | -0.059 |
| Q159V | 0.0456 |
| S270C | -0.0715 |
| S105C | -0.577 |
| S483P | 0.0199 |
| S71W | 0.000735 |
| P488I | 0.0151 |
| N517S | 0.00189 |
| P494D | -0.00383 |
| V458H | -0.592 |
| H172M | 0.0264 |
| G356V | -0.13 |
| V379S | -0.0246 |
| W374Q | -0.828 |
| V47A | 0.101 |
| E287F | -0.0154 |
| S483I | -0.00113 |
| H454P | -0.139 |
| R189I | -0.335 |

| Variant | 8OG:A repair function score |
| --- | --- |
| A223M | -0.321 |
| V274W | -0.16 |
| R364A | -0.285 |
| E141D | -0.251 |
| Q521W | 0.00491 |
| I118D | -0.182 |
| E275M | 0.00516 |
| S276G | -0.00134 |
| I195R | -1.02 |
| L180S | -0.679 |
| L373I | -0.315 |
| E46P | 0.0495 |
| P316G | 0.00918 |
| S226G | -0.00798 |
| L73P | -1.57 |
| N143F | -0.0267 |
| A357F | -0.0934 |
| D94G | -0.231 |
| V458S | -0.192 |
| E106P | -1.62 |
| Q386W | 0.351 |
| D243L | -0.818 |
| Q388E | -0.368 |
| V485K | -0.00358 |

| Variant | 8OG:A repair function score |
| --- | --- |
| P273Y | -0.661 |
| A51E | 0.0222 |
| W146V | -0.296 |
| A400R | -0.432 |
| H172W | -0.21 |
| A305W | -0.0242 |
| A357Y | -0.118 |
| P377L | -0.733 |
| K463S | -0.241 |
| M93I | -0.0705 |
| L145W | -0.0219 |
| P225V | -0.0099 |
| L501C | -0.00326 |
| P129R | -0.477 |
| A177T | -0.226 |
| D224Q | -0.87 |
| D91V | 0.0064 |
| P442W | -0.205 |
| P365I | 0.146 |
| G171A | -0.18 |
| R246E | -0.696 |
| S367M | 0.226 |
| E90L | 0.0056 |
| G479M | -0.0116 |

| Variant | 8OG:A repair function score |
| --- | --- |
| V468G | -0.557 |
| L361Q | -0.666 |
| D512V | 0.00239 |
| L355Y | 0.0403 |
| A137K | -0.626 |
| D82T | -0.0186 |
| Q450N | 0.172 |
| T179D | 0.248 |
| R482L | 0.00831 |
| T511R | 0.00505 |
| E285F | 0.000814 |
| S298G | 0.0202 |
| G170K | -0.0295 |
| V327P | -0.051 |
| V328G | -0.0273 |
| V458N | -0.786 |
| A513D | 0.0137 |
| L40I | -0.0464 |
| W235I | -0.342 |
| G293W | 0.000227 |
| M108E | -0.887 |
| T406E | -0.17 |
| K127D | -1.32 |
